Measurements taken from paper PMC2712087 (PLoS Pathogens, 2009).

Columns and labels:
[1] = biological target: T1, FLAG-p53 wild type, from 293T cells (human, UniProt P04637 1-393); assay: pull-down; details: both partners purified
T1 construct: also called FLAG-p53 (WT); p53 protein (WT); source: 293T, transfected, with or without ionizing radiation (20 Gy), purified on anti-FLAG antibody resin

His-p53 wild-type = biological target: T2, His-p53 wild-type (human, UniProt P04637 1-393); assay: pull-down; details: both partners purified
T2 construct: also called His-tagged p53; WT p53; source: E. coli, purified (Ni-NTA agarose); not shown: His, N-terminal, kept

B1: purified recombinant BZLF1 protein (natural protein)
chain: MMDPNSTSEDVKFTPDPYQVPFVQAFDQATRVYQDLGGPSQAPLPCVLWPVLPEPLPQGQLTAYHVSTAPTGSWFSAPQPAPENAYQAYAAPQLFPVSDITQNQQTNQAGGEAPQPGDNSTVQTAAAVVFACPGANQGQQLADIGVPQPAPVAAPARRTRKPQQPESLEECDSELEIKRYKNRVASRKCRAKFKQLLQHYREVAAAKSSENDRLRLLLKQMCPSLDVDSIIPRTPDVLHEDLLNF
notes: also called EBV BZLF1 protein; source: Hi-Five cells infected with recombinant baculovirus AcBZLF1, purified (extracted from nuclei with 0.6 M NaCl; purity more than 90%)
- binding result [1]: binds
- binding result (His-p53 wild-type): binds
